According to paper PMC10397247:

Key:
Experiment in all cases: two-hybrid library CCNG1;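 further: natural log of median RNA to DNA barcode read ratio; higher means stronger binding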
4H953-bH = target: T1, 4H953-bH
T1 chain: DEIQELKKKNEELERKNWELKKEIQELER

4H568-bH = target: T2, 4H568-bH
T2 chain: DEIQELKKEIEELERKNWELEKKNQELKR

4H967-bH = target: T3, 4H967-bH
T3 chain: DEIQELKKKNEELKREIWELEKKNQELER

4H918-bH = target: T4, 4H918-bH
T4 chain: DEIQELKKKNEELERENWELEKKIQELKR

4H370-bH = target: T5, 4H370-bH
T5 chain: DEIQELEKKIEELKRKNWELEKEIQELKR

4H462-bH = target: T6, 4H462-bH
T6 chain: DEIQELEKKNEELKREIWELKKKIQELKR

4H797-bH = target: T7, 4H797-bH
T7 chain: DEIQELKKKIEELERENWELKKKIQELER

4H607-bH = target: T8, 4H607-bH
T8 chain: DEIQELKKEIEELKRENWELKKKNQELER

4H2576-bH = target: T9, 4H2576-bH
T9 chain: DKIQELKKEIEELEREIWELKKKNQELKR

4H883-bH = target: T10, 4H883-bH
T10 chain: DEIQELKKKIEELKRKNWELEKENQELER

4H3189-bH = target: T11, 4H3189-bH
T11 chain: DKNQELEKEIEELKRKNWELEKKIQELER

4H72-bH = target: T12, 4H72-bH
T12 chain: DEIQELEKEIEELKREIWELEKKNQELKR

4H3782-bH = target: T13, 4H3782-bH
T13 chain: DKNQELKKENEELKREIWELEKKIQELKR

4H2667-bH = target: T14, 4H2667-bH
T14 chain: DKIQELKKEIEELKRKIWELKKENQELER

4H2697-bH = target: T15, 4H2697-bH
T15 chain: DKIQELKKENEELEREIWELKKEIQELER

4H4001-bH = target: T16, 4H4001-bH
T16 chain: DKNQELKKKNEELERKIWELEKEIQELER

4H331-bH = target: T17, 4H331-bH
T17 chain: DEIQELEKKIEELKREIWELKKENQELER

4H2610-bH = target: T18, 4H2610-bH
T18 chain: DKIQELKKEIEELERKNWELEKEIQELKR

4H1845-bH = target: T19, 4H1845-bH
T19 chain: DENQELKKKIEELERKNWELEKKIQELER

4H1369-bH = target: T20, 4H1369-bH
T20 chain: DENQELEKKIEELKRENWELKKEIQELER

4H3843-bH = target: T21, 4H3843-bH
T21 chain: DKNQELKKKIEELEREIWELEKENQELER

4H1446-bH = target: T22, 4H1446-bH
T22 chain: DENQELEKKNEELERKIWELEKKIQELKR

4H687-bH = target: T23, 4H687-bH
T23 chain: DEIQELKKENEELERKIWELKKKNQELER

4H3606-bH = target: T24, 4H3606-bH
T24 chain: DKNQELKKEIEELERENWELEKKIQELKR

O9-bN = target: T25, O9-bN
T25 chain: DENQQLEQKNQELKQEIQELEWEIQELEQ

4H908-bA = target: T26, 4H908-bA
T26 chain: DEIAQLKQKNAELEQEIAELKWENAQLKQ

P11A-bN = target: T27, P11A-bN
T27 chain: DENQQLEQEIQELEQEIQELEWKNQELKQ

4H918-bA = target: T28, 4H918-bA
T28 chain: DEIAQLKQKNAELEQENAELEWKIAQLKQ

4H967-bA = target: T29, 4H967-bA
T29 chain: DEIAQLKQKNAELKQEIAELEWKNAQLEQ

4H953-bA = target: T30, 4H953-bA
T30 chain: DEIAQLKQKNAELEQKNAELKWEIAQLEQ

P6A-bH = target: T31, P6A-bH
T31 chain: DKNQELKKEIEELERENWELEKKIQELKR

P2A-bH = target: T32, P2A-bH
T32 chain: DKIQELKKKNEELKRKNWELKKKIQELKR

P5A-bH = target: T33, P5A-bH
T33 chain: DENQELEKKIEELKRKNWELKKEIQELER

P3A-bH = target: T34, P3A-bH
T34 chain: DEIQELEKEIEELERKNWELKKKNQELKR

P4A-bH = target: T35, P4A-bH
T35 chain: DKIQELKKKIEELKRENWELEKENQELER

P1A-bH = target: T36, P1A-bH
T36 chain: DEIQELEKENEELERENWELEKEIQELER

P9A-bH = target: T37, P9A-bH
T37 chain: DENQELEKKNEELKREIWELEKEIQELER

P7A-bH = target: T38, P7A-bH
T38 chain: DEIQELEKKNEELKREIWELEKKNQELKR

P12A-bH = target: T39, P12A-bH
T39 chain: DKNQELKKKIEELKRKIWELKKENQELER

P8A-bH = target: T40, P8A-bH
T40 chain: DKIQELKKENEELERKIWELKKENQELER

P8A-bN = target: T41, P8A-bN
T41 chain: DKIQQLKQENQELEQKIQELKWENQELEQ

P12A-bN = target: T42, P12A-bN
T42 chain: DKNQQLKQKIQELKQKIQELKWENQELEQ

P6A-bN = target: T43, P6A-bN
T43 chain: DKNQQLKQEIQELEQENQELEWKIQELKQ

P2A-bN = target: T44, P2A-bN
T44 chain: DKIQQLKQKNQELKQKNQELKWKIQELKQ

P4A-bN = target: T45, P4A-bN
T45 chain: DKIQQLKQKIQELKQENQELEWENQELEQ

P5A-bN = target: T46, P5A-bN
T46 chain: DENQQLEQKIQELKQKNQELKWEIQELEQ

P7A-bN = target: T47, P7A-bN
T47 chain: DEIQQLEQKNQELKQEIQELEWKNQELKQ

P3A-bN = target: T48, P3A-bN
T48 chain: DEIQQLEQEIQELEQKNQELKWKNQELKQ

P1A-bN = target: T49, P1A-bN
T49 chain: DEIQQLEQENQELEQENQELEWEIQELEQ

P9A-bN = target: T50, P9A-bN
T50 chain: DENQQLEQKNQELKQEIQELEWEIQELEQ

How did the interaction score (4H953-bH) turn out when DENQELEKKIEELKRENWELKKEIQELER [4H1369-bH] was run?
Its interaction score is -0.636.

What about the interaction score (4H568-bH) of the same binder?
The interaction score was -1.94.

What about the interaction score (4H967-bH) of the same binder?
The interaction score was -0.723.

What about the interaction score (4H918-bH) of the same binder?
The interaction score was -1.26.

What about the interaction score (4H370-bH) of the same binder?
Its interaction score is -1.73.

And the interaction score (4H462-bH)?
Its interaction score is -1.88.

And the interaction score (4H797-bH)?
Its interaction score is -0.464.

What about the interaction score (4H607-bH) of the same binder?
The interaction score was -0.13.

What about the interaction score (4H2576-bH) of the same binder?
The interaction score was -0.848.

And the interaction score (4H883-bH)?
The interaction score was -0.565.

And the interaction score (4H3189-bH)?
The interaction score was -0.572.

And the interaction score (4H72-bH)?
The interaction score was -1.58.

And the interaction score (4H3782-bH)?
Its interaction score is -0.489.

And the interaction score (4H2667-bH)?
Its interaction score is -0.433.

What about the interaction score (4H2697-bH) of the same binder?
The interaction score was -0.653.

What about the interaction score (4H4001-bH) of the same binder?
The interaction score was -0.331.

And the interaction score (4H331-bH)?
The interaction score was -0.491.

And the interaction score (4H2610-bH)?
The interaction score was 0.178.

What about the interaction score (4H1845-bH) of the same binder?
Its interaction score is -0.792.

And the interaction score (4H1369-bH)?
Its interaction score is -0.455.

What about the interaction score (4H3843-bH) of the same binder?
Its interaction score is -0.198.

And the interaction score (4H1446-bH)?
Its interaction score is -1.19.

What about the interaction score (4H687-bH) of the same binder?
The interaction score was 0.994.

And the interaction score (4H3606-bH)?
The interaction score was 1.14.

What about the interaction score (O9-bN) of the same binder?
The interaction score was -3.43.

DEIAQLKQKNAELEQEIAELKWENAQLKQ [4H908-bA] was tested. Which interaction score (4H908-bA) did it give?
Its interaction score is 0.539.

And the interaction score (P11A-bN)?
The interaction score was 1.22.

And the interaction score (4H918-bA)?
Its interaction score is 0.429.

What about the interaction score (4H967-bA) of the same binder?
Its interaction score is -0.532.

What about the interaction score (4H953-bA) of the same binder?
The interaction score was -0.801.

DKNQELKKKIEELKRKIWELKKENQELER [P12A-bH] was tested. Which interaction score (P6A-bH) did it give?
Its interaction score is 0.389.

And the interaction score (P2A-bH)?
Its interaction score is -1.23.

And the interaction score (P5A-bH)?
Its interaction score is -2.21.

And the interaction score (P3A-bH)?
The interaction score was 1.64.

And the interaction score (P4A-bH)?
The interaction score was -0.357.

What about the interaction score (P1A-bH) of the same binder?
The interaction score was 0.256.

What about the interaction score (P9A-bH) of the same binder?
The interaction score was 0.667.

What about the interaction score (P7A-bH) of the same binder?
Its interaction score is -0.514.

And the interaction score (P12A-bH)?
Its interaction score is -0.588.

What about the interaction score (P8A-bH) of the same binder?
The interaction score was 0.274.

Which interaction score (P8A-bN) does the source give for DENQQLEQEIQELEQEIQELEWKNQELKQ [P11A-bN] here?
Its interaction score is 0.54.

And the interaction score (P12A-bN)?
The interaction score was 0.458.

And the interaction score (P6A-bN)?
Its interaction score is -0.465.

What about the interaction score (P2A-bN) of the same binder?
Its interaction score is 0.436.

And the interaction score (P4A-bN)?
Its interaction score is 1.12.

What about the interaction score (P11A-bN) of the same binder?
Its interaction score is 0.856.

What about the interaction score (P5A-bN) of the same binder?
Its interaction score is -1.3.

What about the interaction score (P7A-bN) of the same binder?
Its interaction score is -0.868.

What about the interaction score (P3A-bN) of the same binder?
Its interaction score is 0.143.

And the interaction score (P1A-bN)?
The interaction score was -0.501.

What about the interaction score (P9A-bN) of the same binder?
Its interaction score is 0.422.

Which results are given for DKNQQLKQENQELEQKIQELKWKIQELKQ [P10A-bN]?
interaction score (P8A-bN): -1.93; interaction score (P12A-bN): -0.334; interaction score (P6A-bN): -0.522; interaction score (P2A-bN): -1.29; interaction score (P4A-bN): 0; interaction score (P11A-bN): 0.197; interaction score (P5A-bN): -0.55; interaction score (P7A-bN): 0.528; interaction score (P3A-bN): -2.58; interaction score (P1A-bN): -0.0109
